Source: the DeepSol protein solubility set

Assay: soluble on expression in E. coli; label from the status in PepcDB or PDB records
For “MHAEKDLITKETTQPVPPPAAVVTHQPITKRYDPPISISPPPQRNNYSHVKVTVDSDTSPRQQAFIDDIVAKGGKLAVVTYDRGGQNTKELTVHKGEYLEVIFDERNWWECKNMHQRVGYVPHTILSMVPFEQQQYASPNHHNNSSSTGGYNNGHHQGPGMLPEDAPSYVKERQGKRGEFRYF”, the “soluble on expression in E. coli” value was “not soluble”.
In the case of “MHAQFHHVSLLARHGQENQSFYTKLLGLRFVKNTVNQDNNRMPHYFYGDYQGTPGSLVTFFIVPLLGNRYEEKNYLATIGLKIPQNSLSFWEQRLTENKIPFNKKEKSLHFSDPDDTHIILTEVPENPLKETLVVSNDIPAAVQIIGLASTEFHVPDSEKTLAFFETFLGWQAVGNTIILSETESFSVHQTTSDKTSRMGRGSMDHIAFSVADDEALQELHTRALAQGWEIEMYVSRGYFKSLYIREPGGNRVEFATLTPGFTLDEPLEHLGETLALPPFLEPKRTAIEANLYKDM”, the “soluble on expression in E. coli” value was “not soluble”.
In the case of “MHCPFCDTEETKVIDSRLVSDGYQVRRRRECGHCHERFTTFEMAELIIPKIIKTDGTREPFNEDKLRSGIQHALEKRPVSADDVEKAINHIILQLRATGEREVPSKLVGKLAMNELKKLDKVAYIRFASVYLSFDDIDQFTIEIEKLKD”, the “soluble on expression in E. coli” value was “not soluble”.
With “MHFKRVVKWGLNMYQNQRIKDKINILGVNFDNTTMLEMLENIKQFISSNTDDNLFIVTANPEIVDYATEHELYRNLINQADYVVPDGTGIVKASKRLKQPLKRRVPGIELLEECLKIAHVSHQRVYLLGSKNEIVETAEKKLQSQYPNIHFAHHHGYIHLEDETVIKRITSFNPDYIFVGMGFPKQEQWIQKHKDKFKHTVMMGVGGSFEVFSGSKKRAPQIFRKLNIEWVYRVLIDWKRIGRMISIPKFMLKVAIQKYKMKSK” the “soluble on expression in E. coli” value was “not soluble”.
For “MHFRMKVLENSSKHNTPKKQKTFQHYLPAGDRCYSCIHCRANLAAHAELISKSFQGSQGKAYLFNAVVNVGCGPAEERVLLTGLHAVADIYCEICKTTLGWKYEHAFESSQKYKEGKFIIELAHMVKDNGWDEQNDS”, the “soluble on expression in E. coli” value was “not soluble”.
With “MHGNPMNIPPVSIAAAKAALIEQYADPTLRRRASMLWGTRGVGKSSIVRQVAAHYRVPLIDLRLTTIEPVDIRGAIYADENLAKTVWFPPEFLPSRDQPEGVLFLDELTAADQRLQISAYSLILDRRVGNYHLPDGWQVVAAGNASFHGAISHDMGTALADRMFHFNVQTAIDAFLNHAITQEFAPEVMAYLKIRPDKLDDTQAQLAGDHLIGASPRGWEDISNVLKSGLSDHAKRLFVQGRIGAANAAEFFGVLREIQAGTDVLKLLAARPGPETAALLPKSLDALYGMLYGLLAASTDKQTMARALEIIEQLPDIRSAAPLPIREAQTLAMELLMQRGLENGLESAILDSPAYASYAGRRQLEASDALEHHHHHH” the “soluble on expression in E. coli” value was “not soluble”.
For “MHHHHHHENLYFQSNAMGSTRPIDGLTDEDIREILTRYKKIALVGASPKPERDANIVMKYLLEHGYDVYPVNPNYEEVLGRKCYPSVLDIPDKIEVVDLFVDPAKAWRFVVYAIKKGAKVVWFQYNTYYPLAARQAKEAGLIIVANRCMMREHERLLGEK”, the “soluble on expression in E. coli” value was “soluble”.
For “MHHHHHHMTSVMSHEFQLATAETWPNPWPMYRALRDHDPVHHVVPPQRPEYDYYVLSRHADVWSAARDHQTFSSAQGLTVNYGELEMIGLHDTPPMVMQDPPVHTEFRKLVSRGFTPRQVETVEPTVRKFVVERLEKLRANGGGDIVTELFKPLPSMVVAHYLGVPEEDWTQFDGWTQAIVAANAVDGATTGALDAVGSMMAYFTGLIERRRTEPADDAISHLVAAGVGADGDTAGTLSILAFTFTMVTGGNDTVTGMLGGSMPLLHRRPDQRRLLLDDPEGIPDAVEELLRLTSPVQGLARTTTRDVTIGDTTIPAGRRVLLLYGSANRDERQYGPDAAELDVTRCPRNILTFSHGAHHCLGAAAARMQCRVALTELLARCPDFEVAESRIVWSGGSYVRRPLSVPFRVTSSR”, the “soluble on expression in E. coli” value was “soluble”.
In the case of “MHHHHHHSSGLVPRGSGMKETAAAKFERQHMDSPDLGTDDDDKAMADIGSEFDMANIAVQRIKREFKEVLKSEETSKNQIKVDLVDENFTELRGEIAGPPDTPYEGGRYQLEIKIPETYPFNPPKVRFITKIWHPNISSVTGAICLDILKDQWAAAMTLRTVLLSLQALLAAAEPDDPQDAVVANQYKQNPEMFKQTARLWAHVYAGAPVSSPEYTKKIENLCAAGFDRNAVIVALSSKSWDVETATELLLSN”, the “soluble on expression in E. coli” value was “soluble”.
In the case of “MHHHHHHSSGRENLYFQGPQDLMVTCTAPVNIAVIKYWGKRDEALILPINSSLSVTLHQDQLKTTTTVAISKDFTEDRIWLNGREEDVGQPRLQACLREIRRLARKRRSTEDGDTLPLSLSYKVHVASVNNFPTAAGLASSAAGYACLAYTLAQVYGVEGDLSEVARRGSGSACRSLYGGFVEWQMGEQADGKDSIARQIAPEWHWPQLRILILVVSADKKQTGSTVGMQTSVETSTLLKFRAESVVPERMKEMTRCIQEQDFQGFAQLTMKDSNQFHATCLDTFPPISYLNDTSRRIIQLVHRFNTHHGQTKVAYTFDAGPNAVIFTLEDTVAEFVAAVRHSFPPAANGDKFLKGLQVAPVLLSDELKAALVVEPSPGGVQYIIATQVGPGPQVLDDTHDHLLGQDGLPQRDL”, the “soluble on expression in E. coli” value was “soluble”.
With “MHHHHHHSSGVDLGTENLYFQSMKSVHSSPQNTSHTIMTFYPTMEEFADFNTYVAYMESQGAHQAGLAKVIPPKEWKARQMYDDIEDILIATPLQQVTSGQGGVFTQYHKKKKAMRVGQYRRLANSKKYQTPPHQNFADLEQRYWKSHPGNPPIYGADISGSLFEESTKQWNLGHLGTILDLLEQECGVVIEGVNTPYLYFGMWKTTFAWHTEDMDLYSINYLHFGEPKTWYVVPPEHGQHLERLARELFPDISRGCEAFLRHKVALISPTVLKENGIPFNCMTQEAGEFMVTFPYGYHAGFNHGFNCAEAINFATPRWIDYGKMASQCSCGESTVTFSMDPFVRIVQPESYELWKHR” the “soluble on expression in E. coli” value was “soluble”.
With “MHHHHHHSSGVDLGTENLYFQSMSSVTASAAPGTASLVPDYWIDGSNRDALSDFFEVESELGRGATSIVYRCKQKGTQKPYALKVLKKTVDKKIVRTEIGVLLRLSHPNIIKLKEIFETPTEISLVLELVTGGELFDRIVEKGYYSERDAADAVKQILEAVAYLHENGIVHRDLKPENLLYATPAPDAPLKIADFGLSKIVEHQVLMKTVCGTPGYCAPEILRGCAYGPEVDMWSVGIITYILLCGFEPFYDERGDQFMFRRILNCEYYFISPWWDEVSLNAKDLVRKLIVLDPKKRLTTFQALQHPWVTGKAANFVHMDTAQKKLQEFNARRKLKAAVKAVVASSRLG” the “soluble on expression in E. coli” value was “soluble”.
For “MHHHHHHSSGVDLGTENLYFQSNAMEPFKHPIAILGAGSWGTALALVLARKGQKVRLWSYESDHVDEMQAEGVNNRYLPNYPFPETLKAYCDLKASLEGVTDILIVVPSFAFHEVITRMKPLIDAKTRIAWGTKGLAKGSRLLHEVVATELGQVPMAVISGPSLATEVAANLPTAVSLASNNSQFSKDLIERLHGQRFRVYKNDDMIGVELCGSVKNILAIATGISDGLKLGSNARAALITRGLTEMGRLVSVFGGKQETLTGLAGLGDLVLTCTDNQSRNRRFGLALGEGVDKKEAQQAIGQAIEGLYNTDQVHALAQKHAIEMPLTFQVHRILHEDLDPQQAVQELLERSPKAE”, the “soluble on expression in E. coli” value was “soluble”.
For “MHHHHHHSSGVDLGTENLYFQSNAMLLPTDLSENSFKVLEYLGDFKKVGVEEIGVLFVINLTKLSTVSGGIDIDHYIDEMSEKAEEVLPEVAQKIEAAGIKAEVIKPFPAGDPVVEIIKASENYSFIAMGSRGASKFKKILLGSVSEGVLHDSKVPVYIFKHDMVVNSLFDRVLVAYDFSKWADRALEYAKFVVKKTGGELHIIHVSEDGDKTADLRVMEEVIGAEGIEVHVHIESGTPHKAILAKREEINATTIFMGSRGAGSVMTMILGSTSESVIRRSPVPVFVCKRGDDE”, the “soluble on expression in E. coli” value was “soluble”.
For “MHKEIAKELLLLAGGKNNIISISHCTTRLRFDVKDETKIDIHAIENLQGVQGTFFRYGLFQIIFGAGVVNKIYKEVVHVWETAPSEEPVHQKKASRKLNPAAAFAKTLSDI”, the “soluble on expression in E. coli” value was “not soluble”.
In the case of “MHQVVCATTNPAKIQAILQAFHEIFGEGSCHIASVAVESGVPEQPFGSEETRAGARNRVANARRLLPEADFWVAIEAGIDGDSTFSWVVIENASQRGEARSATLPLPAVILEKVREGEALGPVMSRYTGIDEIGRKEGAIGVFTAGKLTRASVYHQAVILALSPFHNAVY”, the “soluble on expression in E. coli” value was “soluble”.
With “MHRRRSGPTSQPLARGERGLPANRSFASLIAWLTSVRLLCRSPPFCCFYSLSTYTTVMYTDGQYDYDVAVVGGGPAGLTSALYTSRLGMDTIVINRGGGRAAMMTDTHNVIGVTEDVSGNEFLETAREQVQDYGGTYERGFVESVDPLADEEDGFTVTTSDGELAVKRVVLATGFADERPDPPLPRTGKGLHWCLHCDAFMFVGEPVFVMGTGEAAAHVAMIMLNYTDDVDILTRGETPEWSDETQTMLDNHPVEIVETELSGKQTDDDGWLSAYEFEDGSVREYKGGFPMLGSDYHAELADELGLDRNDDGTVAVDDHGETSVSGVYAVGDLTPGHNQIPIAMGEGADAGIAIHKDLRKYPRSVDDIESEGAVEDVEVPAVSEELFATALTHEGHAAGPRSEEAPEVRADDDLEHHHHHH” the “soluble on expression in E. coli” value was “not soluble”.
In the case of “MHSEVTPIHHYKKYWAECFGTAPFLPTSREEMDQLGWDSCDVIIVTGDAYVDHPSFGMAIIGRLLEAQGFRVGIIAQPEWQTKDAFMTLGKPNLFFGVTAGNMDSMINRYTADKKIRHDDAYTPNNKGGMRPDRCSLVYSQRCREAYKDVPIVLGGIEASLRRVAHYDYWSDKVRRSILLDAKADILLFGNAERALVEVAHRLANGESINKMVDIRGTAVNLAQVPEHFKIIDSTRIDQPNKPFVPSNPYEVETQCATKGDEKEEAQPITIRPSRHDAKTTAVRLPSFEKLVNDRILYAHASRVLHLETNPYSGRALVQRHGDRELWVNQAPIPLTTEEMDFVFGLYYARVPHPKYGDAKIPAYDMIKTS”, the “soluble on expression in E. coli” value was “soluble”.
With “MHVWPVQDAKARFSEFLDACITEGPQIVSRRGAEEAVLVPIGEWRRLQAAARPSLKQLLLSDSARTEMLVPERGKARRRQVEPLR” the “soluble on expression in E. coli” value was “soluble”.
With “MHWQTHTVFNQPIPLNNSNLYLSDGALCEAVTREGAGWDSDFLASIGQQLGTAESLELGRLANVNPPELLRYDAQGRRLDDVRFHPAWHLLMQALCTNRVHNLAWEEDARSGAFVARAARFMLHAQVEAGSLCPITMTFAATPLLLQMLPAPFQDWTTPLLSDRYDSHLLPGGQKRGLLIGMGMTEKQGGSDVMSNTTRAERLEDGSYRLVGHKWFFSVPQSDAHLVLAQTAGGLSCFFVPRFLPDGQRNAIRLERLKDKLGNRSNASCEVEFQDAIGWLLGLEGEGIRLILKMGGMTRFDCALGSHAMMRRAFSLAIYHAHQRHVFGNPLIQQPLMRHVLSRMALQLEGQTALLFRLARAWDRRADAKEALWARLFTPAAKFVICKRGMPFVAEAMEVLGGIGYCEESELPRLYREMPVNSIWEGSGNIMCLDVLRVLNKQAGVYDLLSEAFVEVKGQDRYFDRAVRRLQQQLRKPAEELGREITHQLFLLGCGAQMLKYASPPMAQAWCQVMLDTRGGVRLSEQIQNDLLLRATGGVCV” the “soluble on expression in E. coli” value was “soluble”.
For “MHYFSEKPTTKSDVKIVEDILRGKKLKFKTDSGVFSYGKVDKGTKILVENVVVDKDDDILDLGCGYGVIGIALADEVKSTTMADINRRAIKLAKENIKLNNLDNYDIRVVHSDLYENVKDRKYNKIITNPPIRAGKEVLHRIIEEGKELLKDNGEIWVVIQTKQGAKSLAKYMKDVFGNVETVTIKGGYRVLKSKKL”, the “soluble on expression in E. coli” value was “soluble”.
